Data from the DeepSol protein solubility set.

Experiment: soluble on expression in E. coli; label from the status in PepcDB or PDB records

Sequence	soluble on expression in E. coli
MLKNLRIGKFEPEEEYVHFTYSIKNSEREKSKELIKEYRTLLQKAIDYLWSLTKIQVRKKNGNYKITLPKKKEVYKPLREELEKINHLASHYVDKAINDAFSILKSWRKRAIKGRASIEKPRVKKAYVRIKTTLRKVVGESVRITVRPHEYITFPWSKSWFSRRVRELELGEPIIKEEKVYLPFRYKLPWVTPVNFLAIDSNLYTLDAYDGEKFVTISLKQLYSLKYSMEVKRAKVQSFASKHTKRGRELMRKYSHRERNRVLDFVHKFVNALLDLYPMTFFAVEKLDKEGMFVDANESLSRKISRTVWRSIHRVLKYKAPLYGSFVKEVNPYLTSRSCPRCGFVSRKVGKTFECERCGFKLDRQLNASLNIYLKMCGFPHIREIARVWVGVIPLMGRRGMNVRDFGEAQGLRINIKYHEIPLEHHHHHH	not soluble
MEFPFDVDALFPERITVLDQHLRPPARRPGTTTPARVDLQQQIMTIIDELGKASAKAQNLSAPITSASRMQSNRHVVYILKDSSARPAGKGAIIGFIKVGYKKLFVLDDREAHNEVEPLCILDFYIHESVQRHGHGRELFQYMLQKERVEPHQLAIDRPSQKLLKFLNKHYNLETTVPQVNNFVIFEGFFAHQHPPARKLPPKRAEGDIKPYSSSDREFLKVAVEPPWPLNRAPRRATPPAHPPPRSSSLGNSPERGPLRPFVPEQELLRSLRLCPPHPTARLLLAADPGGSPAQRRRTR	not soluble
MAAAVRQDLAQLMNSSGSHKDLAGKYRQILEKAIQLSGTEQLEALKAFVEAMVNENVSLVISRQLLTDFCTHLPNLPDSTAKEVYHFTLEKIQPRVISFEEQVASIRQHLASIYEKEEDWRNAAQVLVGIPLETGQKQYNVDYKLETYLKIARLYLEDDDPVQAEAYINRASLLQNESTNEQLQIHYKVCYARVLDYRRKFIEAAQRYNELSYKTIVHESERLEALKACTGTAPILVSAGDSSALGGRAIFFKDKRCQQLAAYGILEKMYVDRIIRGNQLQEFAAMLMPHQKATTADGSSILDRAVIEHNLLSASKLYNNITFEELGALLEIPAAKAEKIASQMITEGRMNGFIDQIDGIVHFETREALPTWDKQIQSLCFQVNNLLEKISQTAPEWTAQAMEAQMAQ	soluble
MMKKIAITCALLSSLVASSVWADAASDLKSRLDKVSSFHASFTQKVTDGSGAAVQEGQGDLWVKRPNLFNWHMTQPDESILVSDGKTLWFYNPFVEQATATWLKDATGNTPFMLIARNQSSDWQQYNIKQNGDDFVLTPKASNGNLKQFTINVGRDGTIHQFSAVEQDDQRSSYQLKSQQNGAVDAAKFTFTPPQGVTVDDQRK	soluble
MNSPPINEFIQAVVYDHSIATGLKACKTDQDIVDYAASKGFIFSSSEWQLYLALDRKTLSDSELAKILVVPVEHWSWAFRKVALWRAMLMDGV	not soluble
MSKLCKEFSLSATVKNMSRFVDGEEYYTDTEERFNIPWRMFIRKDSGYFDLGLVCEKDSWENREWSIETDYKMKFVSHNGDSLTDSEHFTFENSNKSDVCLMKPWDLLESDYVVDDSIVVEAYVKIIKMTDTPCDEDENIETFLLSNTVKNISSIEEGDDYYTEIATRHNVPWRMQIKRNNGFFELYLRCEKEEQPEWGWKIELDYDLRLVSLNGQSLSLTDSGSFSKPFCEGFEKFMRWNIMEENYIVKDSIIIEARGKITKMIGCDDDSSSDDGEDESSKSHSESDTSSDNLEDEFSECVINVGGQN	not soluble
MISTANITQQFGAKPLFENISVKFGEGNRYGLIGANGCGKSTFMKILSGELEPTGGNVSYDPNERVAKLNQDQFAYEEFTVIDTVIMGHKELWEVKQERDRIYSLPEMSEEDGMKVADLEVQFAEMDGYMAEAKAGELLLAVGIPMEQHFGLMSEVAPGWKLRVLLAQILFADPDIMLLDEPTNNLDMDTIRWLEDTLNARNCTMIIISHDRHFLNSVCTHMADLDYGELRVYPGNYDEYMTAASQARERLLSDNAKKKAQIAELQTFVARFSANASKAKQATSRAKQIDKIKLDEVKASSRQNPFIRFEQSKELFRNA	not soluble
MSDKFNQFINRVLSHEGGYANHPKDPGGETNWGITKRTAQANGYNGSMRAMTREQAISIYRKAFWERYRADQMPEAVAFQFFDACVNHGYGNAARMLQRAAGVPDDGVIGAVSLKAINSLPENDLLLRFNAERLVFYTKLGTFTSFGKGWVRRVAQNLIHASADNTD	soluble
MIKGIGLDMIDLERVKQVVEKNPRFIERVLTEKEIKQFEKYEGNRKIEFLAGRFAAKEAYAKANGTGFGKHLSFTDVEILQVEDGRPHVTLPVKSGENVFVSITHTARSAAAQVIIEI	not soluble
MKILITGGAGFIGSAVVRHIIKNTQDTVVNIDKLTYAGNLESLSDISESNRYNFEHADICDSAEITRIFEQYQPDAVMHLAAESHVDRSITGPAAFIETNIVGTYALLEVARKYWSALGEDKKNNFRFHHISTDEVYGDLPHPDEVENSVTLPLFTETTAYAPSSPYSASKASSDHLVRAWRRTYGLPTIVTNCSNNYGPYHFPEKLIPLVILNALEGKPLPIYGKGDQIRDWLYVEDHARALHMVVTEGKAGETYNIGGHNEKKNLDVVFTICDLLDEIVPKATSYREQITYVADRPGHDRRYAIDAGKISRELGWKPLETFESGIRKTVEWYLANTQWVNNVKSGAYQSWIEQNYEGRQ	soluble
MAAVTELPKMNQELAGAVREGLELKKVETTEKNVLPTKEDVAEEKQHVERIHEIEHFDSTKLHSTPVKEKIVLPSADDIKQEKQHLELTDKINNFPSENLKKTETIEKNVLPSPTDVAREKTLQMAASFDKSALHHVETIVSTDVRVTEAQ	soluble
MMQSGYRAPISRKSVVNTTPATPARTDRRTVSMAQQLLMPKATAVWLVDNTALSFDQIATFCKLHPLEVKAIADGEAAQGIKGLDPIATGQLSRDEIARAEGNPSHKLKLSEPKVRVPESKRRGPRYTPVSKRQDRPNAILWLVRNHPELKDAQISRLVGTTKSTIEQIRDRTHWNSANLTPMDPVTLGLCSQIDLDLEVERASRGRPLPTAEELGNTLQPATATEGLDYNNYQREEEQQIDADAVFKKLSSLKSAPKDEDEDDQYLEHHHHHH	soluble
STSTSGLTARISQTLFTSNSFVEEVASILQHWDTGLEASKRRIQDAKEKNSTVLDLQQLELSNEIFNELWPSIREIRNLKYLNLFLNRLTELPSDFGALSTLETLNLACNPLQSVPDSFSDLAMLRELDLGFTSTLCTVPEIFEKMTQLKVLYAGNNRLEKLPESVISLQCLEELHLYGNALNALPENIGNLKSLRLLNVGRNNLSSLPNSIGSLSSLEVLYLYENDLSSLPRSMKDLSKLRVLGLDGNPSLSSLPEHIKEPNAKAVAAYYAEME	soluble
MQTQEVVIKPTLKVLLKSDSQNLEEVVVTAMGIKRSEKSLGYAVSSVKGDEITKARESNVLNSLSGKIAGLQIAQSSGTVGGSSSIQIRGASSIGTVSSPLFIIDGLPIDNGSYNPDRTNGIVDVGNRAGDINSDDIESINVLKGAAATALYGARAKDGAIVITTKKGKKNSPVFVTVNSSTRFENVLKLPDFQNEYAQGSYGVYNVKMLNGWGPKISSVQDQQFTDYKGDKVTLKANPDNVKDFYETGMSYINNVSVAGGGEKADFRLSFTSTNQTGVVPGSDYNKYAFSVNAGMNFTSNFTGRISAQYIRSDSEGRPAQGANDSNLLIPLINGLPRTIDIHDIKQNWIDENGKQVTLDPEGKSNNPYWIINKNKFTNNLDRMIGNITLTYKPIEGLTITNNAGTDFYTEGRRKLYAKGTVGALNGKFQTWNLYKRIINNDLMVSYEKTFANDYHFKAMVGHNLYQEEWKNENVQAQNLVVDGLYTYTNAKSTTPVNYYEKKRLVGLYGDISLGYKDMLFINVTGRNDWSSTLPINNRSYFYPSISGSFIFTELMENKDILNYGKIRLSYANVGSDEDPYNLAFKYTPASTYFLQYLGNVNTFPHMGLVGFTGPRVLPNENLKPQNQSSFEVGADLRFFGGKIRLDMTYYSNITKNQIVSIDVPLSTGYFANNINAGKIANKGVEVTLGLTPVETRNFKWDLDATFASNKQTVEELAEGLDEYTLTSGLSGLQIKAAKGDSFGLYGTAWKRDDQGNYVINSKTGLRETVNNVRLGDVYPDFTMGINNTLTYKGLTFSFLIDIRHGGSLYSETVANLRSSGLAAETVAHREDASFIEPGVILQDDGTYRPNDVPVKSMQDYWQHVANSSNNEGNIYNASFVKLREVQLSYSFPRKWFKSFFVKSLDLGFEARNLWIIKDHVPHIDPEANFFGPSQIGGGVEFNSIPSTRSFGFNLRLTL	not soluble
MAHHHHHHMTDEKKEEWIRRPYTRSIPVKLRSLAQLEESTVDATTQWYELLEQLVTETDVKGILQQTTKRKAARKLEELASQLRAVMQEMTAQSGRVVREGVDTQSFEQFCAWAGSTPSLQTTEASNGCTQMDKLCARVCMLCLCVAVILNDLELLICGMSFAESHKLLETYSRECEQRSVRQSNSIPDSGMEKGKNSEDVVLCSTVAHTLICGNDHNTFVPLADGDVLLACTLLYYLYTQDGPSASKSVMILERVLHCAEEVGYTSDVLDETGGYRIDFFYTISRMANWVETDNCPRLYQRIAHGFHGGSEVLVPFPPFVFLFTQVMLHMVVRRRLVEMQLQNVWRPVVTMDAAPVGCDGTAAETCSHVHPTVSSTSLCSAHGSKFFAVCLMLQRDCLSQYRSWPLPMELQKSFFC	not soluble
MSLEPYRPICQNRPICGKIPRLNLTEGDTVLDREGYRPNVGIILINERNEVFWGKRVREHSWQFPQGGIKPGESPETAMYRELYEEVGLLPQHVKIVGRTRDWLRYDVPNNWVRREWRGSYRGQKQIWYLLRLTGRDCDVNLRATRHPEFDGWRWHQYWAPVDEVIDFKRDVYLEALKELSSRFLRGMESYEDFAARQPSGNREGHHHHHH	soluble
MNKIRYPAVAGLFYPSHPDELIDMIEQCYLHKFGPKSMPVHGTYEKPIGLLCPHAGYVYSGPIQAHSYYELSKRVDALEETTVVILGPNHTGLGSGVSVMDGIWRTPLGDVKCDEEFVEELWRKCEIVDLDETAHLNEHSIEVQLPFLKHLELLNIAKFKIVPICMMFQDYETAVEVGYFIAKIAKELNRRIVVIASSDLTHYEPQEIASKKDAIVIKDILEMNEKELYEDVVNYNISMCGYGPVIAMLKAMKTLGAEKAKLLAYATSGDITGDYSAVVGYASAIVELEHHHHHH	soluble
MSLIDRYILAIESSCDETSVAILKNEDQLLSNIIASQVESHKRFGGVVPEVASRHHVEVITLCIQDALQEAGITAGDLSAVAVTYGPGLVGALLVGMAAAKAFAWANHLPLIPVNHMAGHLMAAQSIADLQYPLLALLVSGGHTELVYVAAPGDYRIVGETRDDAVGEAYDKVGRVMGLTYPAGKEIDQLAHQGQDIYDFPRAMIKEDNLEFSFSGLKSAFINLHHNARQKGEQLRLEDLCASFQAAVLDILMVKTKKALAAYPVKTLVIAGGVAANQGLRERLKEDIKDINVVIPPLRLCGDNAGMIAYAAAVEYEKGHFAELDLNAKPSLAFEGLEEGHHHHHH	soluble
MTKTTILLLCGGGSSEHEISLVSANYIQQQLELTPEFHVIRVEMKKEGWFSEQGALVYLDTNSATLNSDKASYPIDFVVPCIHGFPGETGDIQSMLELAGIPYLGCGPEASANSFNKITSKLWYDALDIPNTPYLFLTQNTPSSIDKAKQAFGHWGSIFVKAARQGSSVGCYKVTTEDQIAPAIEAAFGFSEQVLVEQAVKPRELEVSAYEMNGKLYISKPGEVIAPEGTFYSYEEKYSANSHARTVLEAENLTEKHKELIQTYAERVFIHMKLRHLSRIDFFLTQEGQIYLNEVNTFPGMTPISMFPKMLEHNGHRFSEFLVQCVTNTLVNAK	not soluble
